Source: paper PMC5177622, “Multivalent Histone and DNA Engagement by a PHD/BRD/PWWP Triple Reader Cassette Recruits ZMYND8 to K14ac-Rich Chromatin” (Cell Reports, 2016)

Biological target: Histone H3 acetylated at K14 (endogenous, HEK293), P68431
Assay: anti-FLAG immunoprecipitation and western blot, quantified
Details: chain shown with the change; HEK293 cells transiently transfected; three biological replicates; anti-H3K14ac blot; parent: est. 1.0; read off a plot

- ratio to parent: 0.19
B1: 3×FLAG-ZMYND8 full length, wild type, Q9ULU4-13 N228F (protein)
chain: MDISTRSKDPGSAERTAQKRKFPSPPHSSNGHSPQDTSTSPIKKKKKPGLLNSNNKEQSELRHGPFYYMKQPLTTDPVDVVPQDGRNDFYCWVCHREGQVLCCELCPRVYHAKCLRLTSEPEGDWFCPECEKITVAECIETQSKAMTMLTIEQLSYLLKFAIQKMKQPGTDAFQKPVPLEQHPDYAEYIFHPMDLCTLEKNAKKKMYGCTEAFLADAKWILHNCIIYFGGNHKLTQIAKVVIKICEHEMNEIEVCPECYLAACQKRDNWFCEPCSNPHPLVWAKLKGFPFWPAKALRDKDGQVDARFFGQHDRAWVPINNCYLMSKEIPFSVKKTKSIFNSAMQEMEVYVENIRRKFGVFNYSPFRTPYTPNSQYQMLLDPTNPSAGTAKIDKQEKVKLNFDMTASPKILMSKPVLSGGTGRRISLSDMPRSPMSTNSSVHTGSDVEQDAEKKATSSHFSASEESMDFLDKSTASPASTKTGQAGSLSGSPKPFSPQLSAPITTKTDKTSTTGSILNLNLDRSKAEMDLKELSESVQQQSTPVPLISPKRQIRSRFQLNLDKTIESCKAQLGINEISEDVYTAVEHSDSEDSEKSDSSDSEYISDDEQKSKNEPEDTEDKEGCQMDKEPSAVKKKPKPTNPVEIKEELKSTSPASEKADPGAVKDKASPEPEKDFSEKAKPSPHPIKDKLKGKDETDSPTVHLGLDSDSESELVIDLGEDHSGREGRKNKKEPKEPSPKQDVVGKTPPSTTVGSHSPPETPVLTRSSAQTSAAGATATTSTSSTVTVTAPAPAATGSPVKKQRPLLPKETAPAVQRVVWNSSSKFQTSSQKWHMQKMQRQQQQQQQQNQQQQPQSSQGTRYQTRQAVKAVQQKEITQSPSTSTITLVTSTQSSPLVTSSGSMSTLVSSVNADLPIATASADVAADIAKYTSKMMDAIKGTMTEIYNDLSKNTTGSTIAEIRRLRIEIEKLQWLHQQELSEMKHNLELTMAEMRQSLEQERDRLIAEVKKQLELEKQQAVDETKKKQWCANCKKEAIFYCCWNTSYCDYPCQQAHWPEHMKSCTQSATAPQQEADAEVNTETLNKSSQGSSSSTQSAPSETASASKEKETSAEKSKESGSTLDLSGSRETPSSILLGSNQGSDHSRSNKSSWSSSDEKRGSTRSDHNTSTSTKSLLPKESRLDTFWD
